Laboratory results from the supplement of paper PMC6379048.

What was measured:
Assay in all cases: EC50 of free RNA motif oligo competing protein binding to immobilised probe
[1] = target: MRPS34 (UniProt P82930)
Method in brief: (§1)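 Free RNA oligos (0 nM to 30 μM) competed for 1 h at 4°C in HEK293-FT lysate (2.5 mg protein/well) before a 30 min, 4°C pulldown with the same oligos on NHS-Sepharose beads. Bound proteins were quantified by label-free LC-MS/MS and normalised to the control. Kd was found by multiplying EC50, from a four-parameter log-logistic fit, by a protein-dependent depletion factor.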

[2] = target: T1, TRIM56 (UniProt Q9BRZ2)
T1 sequence: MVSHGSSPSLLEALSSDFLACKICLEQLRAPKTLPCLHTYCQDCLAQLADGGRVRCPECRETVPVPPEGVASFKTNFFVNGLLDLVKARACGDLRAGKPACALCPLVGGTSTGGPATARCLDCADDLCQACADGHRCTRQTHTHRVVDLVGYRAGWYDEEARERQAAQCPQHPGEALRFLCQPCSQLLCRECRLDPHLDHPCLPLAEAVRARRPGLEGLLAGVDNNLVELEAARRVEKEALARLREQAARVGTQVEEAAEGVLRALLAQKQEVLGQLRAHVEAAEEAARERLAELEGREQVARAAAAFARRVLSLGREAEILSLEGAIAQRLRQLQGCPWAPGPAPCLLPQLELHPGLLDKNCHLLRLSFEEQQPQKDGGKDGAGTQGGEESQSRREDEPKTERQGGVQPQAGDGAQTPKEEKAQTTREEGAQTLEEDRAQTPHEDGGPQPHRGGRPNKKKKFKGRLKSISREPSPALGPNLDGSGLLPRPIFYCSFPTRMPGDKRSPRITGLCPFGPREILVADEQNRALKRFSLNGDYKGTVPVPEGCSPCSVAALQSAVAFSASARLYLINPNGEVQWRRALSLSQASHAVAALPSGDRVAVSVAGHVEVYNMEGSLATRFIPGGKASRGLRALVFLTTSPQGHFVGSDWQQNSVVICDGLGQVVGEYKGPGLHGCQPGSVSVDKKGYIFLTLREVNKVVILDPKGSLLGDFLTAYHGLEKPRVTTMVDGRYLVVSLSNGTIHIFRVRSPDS
Method in brief: as §1

[3] = target: MRPS22 (UniProt P82650)
Method in brief: as §1

[4] = target: T2, PRPF4 (UniProt O43172)
T2 sequence: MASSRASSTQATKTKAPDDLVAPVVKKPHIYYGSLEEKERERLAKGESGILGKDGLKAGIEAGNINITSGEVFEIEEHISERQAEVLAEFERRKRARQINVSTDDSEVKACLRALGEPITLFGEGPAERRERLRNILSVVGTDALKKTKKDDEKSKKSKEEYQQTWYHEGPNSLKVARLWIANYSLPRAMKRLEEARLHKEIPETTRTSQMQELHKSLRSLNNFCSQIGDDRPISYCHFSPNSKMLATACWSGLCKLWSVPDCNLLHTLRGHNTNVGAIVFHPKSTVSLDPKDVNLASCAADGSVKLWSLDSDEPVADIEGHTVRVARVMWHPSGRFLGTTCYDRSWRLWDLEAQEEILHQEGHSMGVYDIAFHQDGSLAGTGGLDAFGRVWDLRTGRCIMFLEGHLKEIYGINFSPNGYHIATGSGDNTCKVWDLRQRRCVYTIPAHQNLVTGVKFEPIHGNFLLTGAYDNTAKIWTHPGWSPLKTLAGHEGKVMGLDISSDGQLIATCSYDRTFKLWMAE
Method in brief: as §1

[5] = target: DAP3 (UniProt P51398)
Method in brief: as §1

[6] = target: RPS5 (UniProt P46782)
Method in brief: as §1

[7] = target: MRPL12 (UniProt P52815)
Method in brief: as §1

[8] = target: MRPL49 (UniProt Q13405)
Method in brief: as §1

[9] = target: MRPL37 (UniProt Q9BZE1)
Method in brief: as §1

[10] = target: TUBB4B (UniProt P68371)
TUBB4B, sequence (P68371 whole entry): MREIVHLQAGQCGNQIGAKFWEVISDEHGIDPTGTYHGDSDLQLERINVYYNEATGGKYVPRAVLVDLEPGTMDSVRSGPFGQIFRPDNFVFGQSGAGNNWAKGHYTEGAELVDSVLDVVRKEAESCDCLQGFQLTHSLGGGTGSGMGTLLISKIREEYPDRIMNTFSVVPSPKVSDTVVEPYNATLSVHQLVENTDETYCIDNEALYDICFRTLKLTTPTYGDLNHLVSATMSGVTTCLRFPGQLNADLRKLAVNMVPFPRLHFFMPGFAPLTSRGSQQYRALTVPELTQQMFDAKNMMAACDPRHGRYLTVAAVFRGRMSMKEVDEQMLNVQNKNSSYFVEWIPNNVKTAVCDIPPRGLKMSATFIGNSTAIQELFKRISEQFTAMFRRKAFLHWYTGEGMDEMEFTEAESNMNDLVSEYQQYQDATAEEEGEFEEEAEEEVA
Method in brief: as §1

[11] = target: RPL7 (UniProt P18124)
Method in brief: as §1

[12] = target: HSP90AB2P (UniProt Q58FF8)
HSP90AB2P, sequence (Q58FF8 whole entry): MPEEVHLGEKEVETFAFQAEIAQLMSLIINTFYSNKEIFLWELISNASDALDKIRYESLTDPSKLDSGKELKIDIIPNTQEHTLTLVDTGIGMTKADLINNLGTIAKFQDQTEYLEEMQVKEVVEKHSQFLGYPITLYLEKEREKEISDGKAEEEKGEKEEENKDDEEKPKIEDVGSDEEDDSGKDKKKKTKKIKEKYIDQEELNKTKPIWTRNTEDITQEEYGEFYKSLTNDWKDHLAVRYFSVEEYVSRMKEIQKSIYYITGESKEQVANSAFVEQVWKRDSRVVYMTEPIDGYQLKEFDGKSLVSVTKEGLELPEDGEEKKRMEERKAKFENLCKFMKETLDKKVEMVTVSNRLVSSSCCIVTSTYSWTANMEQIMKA
Method in brief: as §1

[13] = target: T3, FUBP1 (UniProt Q96AE4)
T3 sequence: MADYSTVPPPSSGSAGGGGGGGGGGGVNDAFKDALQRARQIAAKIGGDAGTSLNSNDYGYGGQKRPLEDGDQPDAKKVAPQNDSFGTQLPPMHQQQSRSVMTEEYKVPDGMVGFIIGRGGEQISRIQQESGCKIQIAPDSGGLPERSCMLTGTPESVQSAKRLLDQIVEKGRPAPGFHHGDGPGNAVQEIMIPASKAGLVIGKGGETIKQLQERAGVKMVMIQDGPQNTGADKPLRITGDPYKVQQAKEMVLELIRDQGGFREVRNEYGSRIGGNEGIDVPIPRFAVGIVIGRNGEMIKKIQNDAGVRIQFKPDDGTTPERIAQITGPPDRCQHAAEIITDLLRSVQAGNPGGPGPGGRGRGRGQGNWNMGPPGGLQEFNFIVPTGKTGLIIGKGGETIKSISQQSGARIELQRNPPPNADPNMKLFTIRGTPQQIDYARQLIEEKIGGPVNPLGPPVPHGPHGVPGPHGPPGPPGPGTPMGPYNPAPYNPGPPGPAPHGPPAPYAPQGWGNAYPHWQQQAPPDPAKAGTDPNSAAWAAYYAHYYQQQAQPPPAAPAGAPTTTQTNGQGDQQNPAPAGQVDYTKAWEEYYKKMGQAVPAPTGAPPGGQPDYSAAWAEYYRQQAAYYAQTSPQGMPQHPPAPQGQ
Method in brief: as §1

Sequence: UAUUUAU
- EC50 [1]: 59.7 nM
- EC50 [2]: 3.45 µM
- EC50 [3]: 85.6 nM
- EC50 [4]: 6.81 µM
- EC50 [5]: 51.4 nM

Sequence: CUGUCCU
- EC50 [6]: 303 nM
- EC50 [7]: 115 nM
- EC50 [8]: 109 nM
- EC50 [9]: 245 nM

Sequence: AAUAAA
- EC50 [10]: 1410 nM
- EC50 [11]: 6.98 µM
- EC50 [12]: 129 nM
- EC50 [13]: 5.75 µM
